{
  "source": "paper PMC8835902",
  "about": "“DNA Polymerase-Parental DNA Interaction Is Essential for Helicase-Polymerase Coupling during Bacteriophage T7 DNA Replication” (International Journal of Molecular Sciences, 2022)",
  "binders": {"B1": {"name": "T7 gp4 helicase-primase, active site mutant E343Q (enzyme, bacteriophage T7, UniProt P03692 1-566, looked up)", "chain": "MDNSHDSDSVFLYHIPCDNCGSSDGNSLFSDGHTFCYVCEKWTAGNEDTKERASKRKPSGGKPMTYNVWNFGESNGRYSALTARGISKETCQKAGYWIAKVDGVMYQVADYRDQNGNIVSQKVRDKDKNFKTTGSHKSDALFGKHLWNGGKKIVVTEGEIDMLTVMELQDCKYPVVSLGHGASAAKKTCAANYEYFDQFEQIILMFDMDEAGRKAVEEAAQVLPAGKVRVAVLPCKDANECHLNGHDREIMEQVWNAGPWIPDGVVSALSLRERIREHLSSEESVGLLFSGCTGINDKTLGARGGEVIMVTSGSGMGKSTFVRQQALQWGTAMGKKVGLAMLQESVEETAEDLIGLHNRVRLRQSDSLKREIIENGKFDQWFDELFGNDTFHLYDSFAEAETDRLLAKLAYMRSGLGCDVIILDHISIVVSASGESDERKMIDNLMTKLKGFAKSTGVVLVVICHLKNPDKGKAHEEGRPVSITDLRGSGALRQLSDTIIALERNQQGDMPNLVLVRILKCRFTGDTGIAGYMEYNKETGWLEPSSYSGEEESHSESTDWSNDTDF", "notes": "bacteriophage T7 gp4 helicase-primase, full-length, with E343Q; modified pET28a with histidine tags and a PreScission site; Added as 'hexameric EQgp4' in the EMSA; also called EQgp4; E343Q gp4; source: E. coli C3013I (T7 Express lysY/Iq), purified (Histrap, MonoQ)"}},
  "key": {"[1]": {"molecular_target": "T1, K3Dgp5-trx complex (T7 gp5 K545D, K549D, K553D with thioredoxin) (bacteriophage T7 | , UniProt P00581 1-704; P0AA25 1-109 = thioredoxin, D5A | E7A | K545D | K549D | K553D)", "T1 construct": "bacteriophage T7 gp5 DNA polymerase (D5A, E7A) with the positively charged cleft mutations K545D, K549D, K553D; Mutagenesis on the plasmid encoding WTgp5 (D5A, E7A); also called DNA-K3Dgp5; source: E. coli BL21 (DE3), co-expressed, purified (Heparin HP, MonoQ)", "experiment": "native gel or EMSA; supershift: 10 nM fork DNA (2 gaps) pre-incubated with gp5-trx variants (60-100 nM) 15 min at 25 °C, then rising amounts of hexameric EQgp4, 15 min at 25 °C; 20 mM Hepes pH 7.5, 1 mM EDTA, 100 mM KCl, 0.1 mM βME, 5% glycerol, 0.10 mg/mL BSA; 4% polyacrylamide gel; fitted to the Hill equation", "settings": "both partners purified"}, "[2]": {"molecular_target": "T2, WTgp5-trx complex (T7 gp5 DNA polymerase D5A, E7A with thioredoxin) (bacteriophage T7 | , UniProt P00581 1-704; P0AA25 1-109 = thioredoxin, D5A | E7A)", "T2 construct": "gp5 in pET15b, trxA in pRSFDuet; no tag is mentioned and purification was by heparin and ion exchange; also called DNA-WTgp5; source: E. coli BL21 (DE3), co-expressed, purified (Heparin HP, MonoQ)", "experiment": "native gel or EMSA; supershift: 10 nM fork DNA (2 gaps) pre-incubated with gp5-trx variants (60-100 nM) 15 min at 25 °C, then rising amounts of hexameric EQgp4, 15 min at 25 °C; 20 mM Hepes pH 7.5, 1 mM EDTA, 100 mM KCl, 0.1 mM βME, 5% glycerol, 0.10 mg/mL BSA; 4% polyacrylamide gel; fitted to the Hill equation", "settings": "both partners purified"}},
  "data": [
    {"binder": "B1", "values": [
      {"measurement": "Kd with fork DNA (gp4 on fork DNA pre-bound to gp5-trx)", "setting": "[1]", "value": "6 ± 1", "unit": "nM"},
      {"measurement": "Kd with fork DNA (gp4 on fork DNA pre-bound to gp5-trx)", "setting": "[2]", "value": "8 ± 1", "unit": "nM"}
    ]}
  ]
}
